Laboratory results taken from PMC3305072.

What was measured:
[1] = SEC; Superdex 200 GL 10/300, PBS pH 7.5, protein injected at 10 µM, 0.5 mL/min, A280; percent of monomeric, dimeric and high molecular weight species
[2] = SEC; Superdex 200 GL 10/300, PBS pH 7.5, protein injected at 50 µM, 0.5 mL/min, A280; percent of monomeric, dimeric and high molecular weight species
[3] = SEC; Superdex 200 GL 10/300, PBS pH 7.5, protein injected at 120 µM, 0.5 mL/min, A280; percent of monomeric, dimeric and high molecular weight species
[4] = molecular target: BlaP(Gln)79 (Bacillus licheniformis 749/C); assay: as above

Row | stoichiometry N [4] | Substance | % dimeric species (SEC) [1] [%] | % high molecular weight oligomeric species (SEC) [1] [%] | % dimeric species (SEC) [2] [%] | % high molecular weight oligomeric species (SEC) [2] [%] | % dimeric species (SEC) [3] [%] | % high molecular weight oligomeric species (SEC) [3] [%]
1 |  | BlaP(Gln)79 | 0.9 | 1.8 | 1.1 | 2.5 | 1.2 | 3.5
2 | > 15 | BlaP(Gln)79 (enzyme) |  |  |  |  |  | 
3 |  | BlaP(Gln)23 |  |  | 0.6 |  | 0.7 | 
4 |  | BlaP(Gln)30 |  |  | 0.4 |  | 0.5 | 
5 |  | BlaP(Gln)55 |  |  | 1.1 |  | 1.4 | 
6 |  | β-lactamase from Bacillus licheniformis 749/C (BlaP) |  |  | 4.9 |  | 5.6 | 
